This note sets out measurements from patent US20230051304A1 (Regeneron, published 2023).

Where two headings read alike, the source gives them in different places.

Common to all, as to experiment: cell-based or functional assay
Test [1] deals with murine IL12 receptor complex (IL12Rβ1 and IL12Rβ2) (mouse) (UniProt Q60837).
For test [2] the target is unchanged. The source holds these as a separate data set.
For test [3] the target is unchanged. This is another data set of the same source.

Chain of murine IL12 receptor complex (IL12Rβ1 and IL12Rβ2) (mouse) (Q60837 20-738, chain 1 of 2): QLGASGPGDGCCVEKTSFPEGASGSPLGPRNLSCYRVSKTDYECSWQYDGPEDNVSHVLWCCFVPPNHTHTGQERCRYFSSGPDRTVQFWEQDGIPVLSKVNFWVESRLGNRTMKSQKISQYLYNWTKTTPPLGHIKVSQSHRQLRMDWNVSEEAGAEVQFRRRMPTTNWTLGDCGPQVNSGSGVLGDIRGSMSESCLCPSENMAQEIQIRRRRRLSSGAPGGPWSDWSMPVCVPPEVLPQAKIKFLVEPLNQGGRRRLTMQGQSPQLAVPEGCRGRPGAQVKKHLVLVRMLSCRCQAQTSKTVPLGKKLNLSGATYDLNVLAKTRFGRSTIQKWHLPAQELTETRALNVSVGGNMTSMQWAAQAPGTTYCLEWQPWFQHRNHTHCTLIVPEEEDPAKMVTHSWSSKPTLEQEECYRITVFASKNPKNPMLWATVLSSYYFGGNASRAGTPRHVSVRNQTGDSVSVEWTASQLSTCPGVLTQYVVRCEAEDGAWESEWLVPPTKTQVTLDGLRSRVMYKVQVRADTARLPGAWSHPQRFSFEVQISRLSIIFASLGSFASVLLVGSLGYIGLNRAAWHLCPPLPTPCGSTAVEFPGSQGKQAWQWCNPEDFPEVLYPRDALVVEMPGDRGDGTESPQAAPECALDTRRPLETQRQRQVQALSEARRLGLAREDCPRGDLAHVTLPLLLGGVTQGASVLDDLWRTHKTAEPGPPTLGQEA
Chain of murine IL12 receptor complex (IL12Rβ1 and IL12Rβ2) (mouse) (P97378 24-874, chain 2 of 2, further chain): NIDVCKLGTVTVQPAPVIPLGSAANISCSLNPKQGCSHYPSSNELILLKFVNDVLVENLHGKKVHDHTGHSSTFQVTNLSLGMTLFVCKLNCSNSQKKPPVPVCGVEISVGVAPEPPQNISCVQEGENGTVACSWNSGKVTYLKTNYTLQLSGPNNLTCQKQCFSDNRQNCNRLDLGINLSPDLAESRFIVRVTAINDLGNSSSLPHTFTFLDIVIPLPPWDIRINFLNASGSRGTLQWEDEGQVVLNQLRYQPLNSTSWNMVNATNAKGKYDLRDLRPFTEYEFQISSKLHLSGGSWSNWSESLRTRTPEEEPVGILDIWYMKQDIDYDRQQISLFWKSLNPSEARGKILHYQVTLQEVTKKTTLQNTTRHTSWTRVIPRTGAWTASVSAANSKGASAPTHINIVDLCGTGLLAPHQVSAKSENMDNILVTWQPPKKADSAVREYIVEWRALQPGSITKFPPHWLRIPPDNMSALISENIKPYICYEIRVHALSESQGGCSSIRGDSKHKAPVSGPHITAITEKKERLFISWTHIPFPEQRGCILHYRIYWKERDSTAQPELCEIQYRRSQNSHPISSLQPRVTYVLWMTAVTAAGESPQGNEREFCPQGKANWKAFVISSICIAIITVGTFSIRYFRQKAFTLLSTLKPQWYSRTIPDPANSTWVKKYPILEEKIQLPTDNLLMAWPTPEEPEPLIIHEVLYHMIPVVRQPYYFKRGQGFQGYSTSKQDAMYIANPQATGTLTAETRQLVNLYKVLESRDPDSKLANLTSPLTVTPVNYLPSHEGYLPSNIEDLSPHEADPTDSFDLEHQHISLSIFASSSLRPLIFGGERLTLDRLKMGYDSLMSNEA

B1: recombinant mIL12 (ligand, mouse)
chain 1: RVIPVSGPARCLSQSRNLLKTTDDMVKTAREKLKHYSCTAEDIDHEDITRDQTSTLKTCLPLELHKNESCLATRETSSTTRGSCLPPQKTSLMMTLCLGSIYEDLKMYQTEFQAINAALQNHNHQQIILDKGMLVAIDELMQSLNHNGETLRQKPPVGEADPYRVKMKLCILLHAFSTRVVTINRVMGYLSSA
chain 2: MWELEKDVYVVEVDWTPDAPGETVNLTCDTPEEDDITWTSDQRHGVIGSGKTLTITVKEFLDAGQYTCHKGGETLSHSHLLLHKKENGIWSTEILKNFKNKTFLKCEAPNYSGRFTCSWLVQRNMDLKFNIKSSSSSPDSRAVTCGMASLSAEKVTLDQRDYEKYSVSCQEDVTCPTAEETLPIELALEARQQNKYENYSTSFFIRDIIKPDPPKNLQMKPLKNSQVEVSWEYPDSWSTPHSYFSLKFFVRIQRKKEKMKETEEGCNQKGAFLVEKTSTEVQCKGGNVCVQAQDRYYNSSCSKWACVPCRVRS
In test [1], B1 came in with an EC50 (M); STAT3-Luc reporter, CTLL2/STAT3-Luc cells of 5.56e-11 M; a Fold induction at 6.25 nM; STAT3-Luc reporter, CTLL2/STAT3-Luc cells of 12.2 fold; a Max fold induction; STAT3-Luc reporter, CTLL2/STAT3-Luc cells of 12.4 fold. In test [2], this molecule yielded an EC50 (M); STAT3-Luc reporter, CTLL2/STAT3-Luc cells of 3.46e-11 M; a Fold induction at 20 nM; STAT3-Luc reporter, CTLL2/STAT3-Luc cells of 18.8 fold; a Max fold induction; STAT3-Luc reporter, CTLL2/STAT3-Luc cells of 19.1 fold. In test [3], this molecule had an EC50 (M); STAT3-Luc reporter, CTLL2/STAT3-Luc cells of 3.71e-10 M and a Max fold induction; STAT3-Luc reporter, CTLL2/STAT3-Luc cells of 17.8 fold.
